Data from paper PMC8516035.

What was measured:
[1] = test system: T1, phi13 CI, His-TEV tag cleaved (Staphylococcus aureus phage phi13), ORF:0019350b; assay: EMSA
T1 sequence: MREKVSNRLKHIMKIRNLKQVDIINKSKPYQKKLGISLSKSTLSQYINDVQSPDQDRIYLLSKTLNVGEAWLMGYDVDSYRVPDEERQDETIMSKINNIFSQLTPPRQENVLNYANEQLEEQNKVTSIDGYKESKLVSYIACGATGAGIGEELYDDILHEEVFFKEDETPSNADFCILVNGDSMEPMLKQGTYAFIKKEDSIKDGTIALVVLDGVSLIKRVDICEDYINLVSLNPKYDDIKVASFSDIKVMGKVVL

[2] = test system: phi13 CI, His-TEV tag cleaved (Staphylococcus aureus phage phi13); assay: EMSA; conditions: Binding buffer (as listed, possibly stock) 100 mM Tris-HCl, 5 mM EDTA, 500 mM NaCl, 5 mM DTT, 25% glycerol, plus BSA and sheared DNA; pH not stated; ~0.5 nM …
[3] = test system: phi13 rCI (CI repressor, N-terminal His-TEV) (Staphylococcus aureus phage phi13); assay: EMSA; conditions: Binding buffer (as listed, possibly stock) 100 mM Tris-HCl, 5 mM EDTA, 500 mM NaCl, 5 mM DTT, 25% glycerol, plus BSA and sheared DNA; pH not stated; ~0.5 nM …
[4] = test system: phi13 rCI (CI repressor, N-terminal His-TEV) (Staphylococcus aureus phage phi13); assay: EMSA; conditions: Binding buffer (as listed, possibly stock) 100 mM Tris-HCl, 5 mM EDTA, 500 mM NaCl, 5 mM DTT, 25% glycerol, plus BSA and sheared DNA, pH not stated, ~0.5 nM …
[5] = molecular target: ɸ13 rCI (recombinant CI repressor protein of phage ɸ13 with an N-terminal His-tag and TEV cleavage site) (S. aureus phage ɸ13); assay: SEC; HiLoad 26/600 Superdex200 column; 20 mM Tris, 100 mM NaCl, pH 7.5; calibrated with Mw standards (Blue Dextran, Ferritin, Catalase, Aldolase, Carbonic Anhydrase, Aprotinin); tagged rCI after IMAC
[6] = apparent, free-probe loss, no specific band detected

Row | Substance | Kd [1] [nM] | Kd [2] [nM] | Kd [3] [nM] | Kd [4] [nM] | Kd [4, 6] [nM] | other results
1 | GTAATACGACTCACTATAGGATAATAAAGCTTGTTGAACAAAAATTCAACAAAAAAGTTCATAAATCATGAATTTTTGTATTGACTTGATTCAAAACAAGGTGTAAAGTGGTAACTTTCACACAAAAGG (double strand) [OR] | 12 | – | – | – | – | –
2 | GTAATACGACTCACTATAGGATATACCGGTAGAGAAAATACACTTATATTTTTTTAAAGAAAAAGTTCATGTTATATGAACTTAAGGAGGGGCACAATGGAACAAATCACGGATCCGGTAACTTTCACACAAAAGG (double strand) [OD] | 12 | – | – | – | – | –
3 | GTAATACGACTCACTATAGGGACTTGATTCAAAACAAGGTGTAAAGTATAGTTAAGTTCATGATACGTGAACTTGAGAGGAGGTGCTTTTATGTGTTACGACTACTCAGGTAACTTTCACACAAAAGG (double strand) [OL] | 12 | – | – | – | – | –
4 | OD | – | 12 | 15 | 3.3 | – | –
5 | OD control | – | – | – | – | 900 | –
6 | OL | – | 12 | 22 | 3.9 | – | –
7 | OL control | – | – | – | – | 690 | –
8 | OR | – | 12 | 310 | 100 | – | –
9 | OR control | – | – | – | – | 690 | –
10 | ɸ13 rCI (recombinant CI repressor protein of phage ɸ13 with an N-terminal His-tag and TEV cleavage site) | – | – | – | – | – | stoichiometry N [5]: 4
